Measured values: PMC13395435
“And” between values parts separate entries of the source, which are not always exact repeats. Equal values may be shown once.

Key:
3xHA-NLuc-dSP-AVR-Pia = 3xHA-NLuc-dSP-AVR-Pia (UniProt B9WZW9); assay: split luciferase complementation assay; details: parent: est. 3400; read off a plot
[1] = target: recombinant OsHPP09-HMA (rice); assay: NMR titration
[2] = target: recombinant OsHPP09-HMA (rice); assay: ITC
[3] = target: recombinant OsHPP11-HMA (rice); assay: ITC
[4] = target: recombinant OsHIPP21-HMA (rice); assay: ITC
[5] = target: recombinant OsHPP10-HMA (rice); assay: ITC
OsHPP11-HMA (rice) = assay: ITC
OsHPP09-HMA (rice) = assay: ITC
OsHIPP21-HMA (rice) = assay: ITC
OsHPP10-HMA (rice) = assay: ITC

3xFlag-CLuc-OsHPP09 full-length K19W gave a response (3xHA-NLuc-dSP-AVR-Pia) of 1500.
“recombinant AVR-Pia (from UniProt B9WZW9 1-85) (natural protein)” gave a Kd [1] of less than 100 nM, a Kd [2] of 115 nM and a Kd [3] of 772 nM. It also gave a Kd [4] of 1290 nM and a Kd [5] of 5260 nM.
Substance 3xFlag-CLuc-OsHPP09 full-length D33R has a response (3xHA-NLuc-dSP-AVR-Pia) of 2000.
3xFlag-CLuc-OsHPP09 full-length D33A gave a response (3xHA-NLuc-dSP-AVR-Pia) of 2800.
3xFlag-CLuc-OsHPP09 full-length Q20A was tested, and the response (3xHA-NLuc-dSP-AVR-Pia) was 3100.
For AVR-Pia (natural protein), the Kd (OsHPP11-HMA (rice)) was 925 nM and 929 nM, the Kd (OsHPP09-HMA (rice)) was 125 nM and 185 nM and the Kd (OsHIPP21-HMA (rice)) was 1970 nM and 2330 nM. For the same substance, the Kd (OsHPP10-HMA (rice)) was 6510 nM and 7470 nM.
Substance 3xFlag-CLuc-OsHPP09 full-length A37W has a response (3xHA-NLuc-dSP-AVR-Pia) of 1300.
Work on 3xFlag-CLuc-OsHPP09 full-length D33H yielded a response (3xHA-NLuc-dSP-AVR-Pia) of 2600.
In the case of 3xFlag-CLuc-OsHPP09 full-length K19A, the response (3xHA-NLuc-dSP-AVR-Pia) is reported as 1800.
